# From PMC8015430 (Immunity, 2021)
# B1: COVA1-16 (antibody, V domains shown)
# VH: QVQLVQSGAEVKKPGASVKVSCKASGYTFTSYYMHWVRQAPGQGLEWMGIINSSGGSTSYAQKFQGRVTMTRDTSTSTVYMELSSLRSEDTAVYYCARPPRNYYDRSGYYQRAEYFQHWGQGTLVTVSS
# VL: DIQLTQSPSSLSASVGDRVTITCQASQDISNYLNWYQQRPGKAPKLLIYDASNLETGVPSRFSGSGSGTDFTFTISSLQPEDIATYYCQQYDNPPLTFGGGTKLEIK
# notes: IgG; RBD Class 4
# B2: COVA2-39 (antibody, V domains shown)
# VH: QVQLVETGGGLIQPGGSLRLSCAASGFTVSSNYMSWVRQAPGKGLEWVSVIYTGGTTYYADSVKGRFTISRDNSKNTLYLQMNSLRAEDTAVYYCARAHVDTAMVESGAFDIWGQGTRVTVSS
# VL: QSALTQPASVSGSPGQSITISCTGTSSDVGSYNLVSWYQQHPGKAPKLMIYEVTKRPSGVSNRFSGSKSGNTASLTISGLQAEDEADYYCCSYAGSSTWVFGGGTKLTVL
# notes: IgG; RBD Class 2
# Biological target: T1, Recombinant Stabilized SARS-CoV-2 Spike (SARS-CoV-2, Wuhan-Hu-1 reference (wave …, UniProt P0DTC2, stabilised))
# T1 construct: also called Pre-fusion, stabilized and uncleaved SARS-CoV-2 Spike (pcDNA3.1+)
# Assay: ELISA
# Conditions: both partners purified
row,Binder,binding result
1,B1,binds
2,B2,binds
